[ ]: non-standard residue; d: D form. pY = N[C@@H](Cc1ccc(OP(=O)(O)O)cc1)C(=O)O
Columns and labels:
Assay in all cases: HDX-MS; purified p110α/p85α complex (9 pmol) incubated with pY peptide (1 µl of 50 µM) or buffer for 15 min on ice; exchange 3 s on ice and 3, 30, 300, 3000 s at 20 °C; 20 mM HEPES pH 7.5, 100 mM NaCl
Settings in all cases: both partners purified
[1] = molecular target: T1, p110α H1047R-p85α complex (human, UniProt P42336 1-1068; P27986 1-724, H1047R)
T1 construct: p110α, human, full length with the oncogenic mutation H1047R; p85α, human, residues 1-724; Heterodimer of m4 and m2; also called p110α/p85α H1047R; source: Sf9 (baculovirus), co-expressed, purified (Ni-NTA, Strep column, Q column, gel filtration); not shown: His10, N-terminal, cleaved; 2x Strep, N-terminal, cleaved

[2] = molecular target: T2, p110α-p85α complex (wild type, full length) (human, UniProt P42336 1-1068; P27986 1-724)
T2 construct: p85α, human, residues 1-724; Heterodimer of m1 and m2; also called WT p110α/p85α; full-length p110α-p85α; source: Sf9 (baculovirus), co-expressed, purified (Ni-NTA, Strep column, Q column, gel filtration); not shown: His10, N-terminal, cleaved; 2x Strep, N-terminal, cleaved

[3] = molecular target: T3, p110α ΔCter (1–1048)-p85α complex (human, UniProt P42336 1-1048; P27986 1-724)
T3 construct: p85α, human, residues 1-724; Heterodimer of m7 and m2; source: Sf9 (baculovirus), co-expressed, purified (Ni-NTA, Strep column, Q column, gel filtration); not shown: His10, N-terminal, cleaved; 2x Strep, N-terminal, cleaved

Measured: binding result

T3 sequence (P42336 1-1048, stated change not applied, chain 1 of 2): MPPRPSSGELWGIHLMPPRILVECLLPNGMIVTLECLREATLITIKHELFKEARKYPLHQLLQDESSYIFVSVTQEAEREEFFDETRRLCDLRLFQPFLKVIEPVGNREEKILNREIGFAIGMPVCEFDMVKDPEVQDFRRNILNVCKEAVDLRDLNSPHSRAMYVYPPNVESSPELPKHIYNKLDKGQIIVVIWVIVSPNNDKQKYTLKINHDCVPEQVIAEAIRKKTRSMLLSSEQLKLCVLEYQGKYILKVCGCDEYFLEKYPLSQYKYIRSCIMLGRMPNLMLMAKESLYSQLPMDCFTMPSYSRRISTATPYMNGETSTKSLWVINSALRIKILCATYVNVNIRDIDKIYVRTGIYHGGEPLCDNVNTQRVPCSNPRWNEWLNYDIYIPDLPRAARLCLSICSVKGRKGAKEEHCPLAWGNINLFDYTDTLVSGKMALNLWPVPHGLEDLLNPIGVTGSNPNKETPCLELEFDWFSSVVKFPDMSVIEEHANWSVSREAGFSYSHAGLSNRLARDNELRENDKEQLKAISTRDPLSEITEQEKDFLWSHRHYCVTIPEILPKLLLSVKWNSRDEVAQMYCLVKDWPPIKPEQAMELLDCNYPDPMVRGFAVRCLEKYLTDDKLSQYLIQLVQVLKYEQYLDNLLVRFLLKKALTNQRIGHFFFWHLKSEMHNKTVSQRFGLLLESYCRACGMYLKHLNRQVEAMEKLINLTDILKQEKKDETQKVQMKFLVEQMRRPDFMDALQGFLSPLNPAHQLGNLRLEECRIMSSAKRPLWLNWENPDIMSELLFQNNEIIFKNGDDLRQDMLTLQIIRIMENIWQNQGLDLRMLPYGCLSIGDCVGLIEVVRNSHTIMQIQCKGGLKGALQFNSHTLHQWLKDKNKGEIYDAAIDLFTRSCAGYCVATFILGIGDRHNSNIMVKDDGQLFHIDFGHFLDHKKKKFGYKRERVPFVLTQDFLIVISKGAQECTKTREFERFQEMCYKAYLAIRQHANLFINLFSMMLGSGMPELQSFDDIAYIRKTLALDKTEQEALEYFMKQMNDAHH
T3 sequence (P27986 whole entry, stated change not applied, chain 2 of 2, the tested form may be a part): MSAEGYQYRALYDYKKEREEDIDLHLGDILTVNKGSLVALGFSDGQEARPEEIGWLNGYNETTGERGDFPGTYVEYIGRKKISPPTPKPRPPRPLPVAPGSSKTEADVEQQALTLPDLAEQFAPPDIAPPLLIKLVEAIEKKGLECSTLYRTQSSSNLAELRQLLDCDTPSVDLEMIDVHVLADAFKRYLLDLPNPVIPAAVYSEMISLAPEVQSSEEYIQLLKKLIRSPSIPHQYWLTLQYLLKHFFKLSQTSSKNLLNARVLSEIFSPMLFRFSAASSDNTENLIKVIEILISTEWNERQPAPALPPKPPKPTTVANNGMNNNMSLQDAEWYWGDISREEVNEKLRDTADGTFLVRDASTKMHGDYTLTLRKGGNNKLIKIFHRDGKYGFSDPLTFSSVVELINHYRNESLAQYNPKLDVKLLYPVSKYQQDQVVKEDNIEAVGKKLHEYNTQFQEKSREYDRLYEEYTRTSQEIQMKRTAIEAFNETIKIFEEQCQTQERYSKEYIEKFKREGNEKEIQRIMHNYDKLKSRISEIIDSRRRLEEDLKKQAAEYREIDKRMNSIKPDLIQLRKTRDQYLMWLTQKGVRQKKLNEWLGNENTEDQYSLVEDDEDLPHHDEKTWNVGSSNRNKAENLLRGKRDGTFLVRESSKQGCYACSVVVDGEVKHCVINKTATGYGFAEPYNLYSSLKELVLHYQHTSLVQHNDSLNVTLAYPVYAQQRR
T2 sequence (P42336 whole entry, chain 1 of 2, the tested form may be a part): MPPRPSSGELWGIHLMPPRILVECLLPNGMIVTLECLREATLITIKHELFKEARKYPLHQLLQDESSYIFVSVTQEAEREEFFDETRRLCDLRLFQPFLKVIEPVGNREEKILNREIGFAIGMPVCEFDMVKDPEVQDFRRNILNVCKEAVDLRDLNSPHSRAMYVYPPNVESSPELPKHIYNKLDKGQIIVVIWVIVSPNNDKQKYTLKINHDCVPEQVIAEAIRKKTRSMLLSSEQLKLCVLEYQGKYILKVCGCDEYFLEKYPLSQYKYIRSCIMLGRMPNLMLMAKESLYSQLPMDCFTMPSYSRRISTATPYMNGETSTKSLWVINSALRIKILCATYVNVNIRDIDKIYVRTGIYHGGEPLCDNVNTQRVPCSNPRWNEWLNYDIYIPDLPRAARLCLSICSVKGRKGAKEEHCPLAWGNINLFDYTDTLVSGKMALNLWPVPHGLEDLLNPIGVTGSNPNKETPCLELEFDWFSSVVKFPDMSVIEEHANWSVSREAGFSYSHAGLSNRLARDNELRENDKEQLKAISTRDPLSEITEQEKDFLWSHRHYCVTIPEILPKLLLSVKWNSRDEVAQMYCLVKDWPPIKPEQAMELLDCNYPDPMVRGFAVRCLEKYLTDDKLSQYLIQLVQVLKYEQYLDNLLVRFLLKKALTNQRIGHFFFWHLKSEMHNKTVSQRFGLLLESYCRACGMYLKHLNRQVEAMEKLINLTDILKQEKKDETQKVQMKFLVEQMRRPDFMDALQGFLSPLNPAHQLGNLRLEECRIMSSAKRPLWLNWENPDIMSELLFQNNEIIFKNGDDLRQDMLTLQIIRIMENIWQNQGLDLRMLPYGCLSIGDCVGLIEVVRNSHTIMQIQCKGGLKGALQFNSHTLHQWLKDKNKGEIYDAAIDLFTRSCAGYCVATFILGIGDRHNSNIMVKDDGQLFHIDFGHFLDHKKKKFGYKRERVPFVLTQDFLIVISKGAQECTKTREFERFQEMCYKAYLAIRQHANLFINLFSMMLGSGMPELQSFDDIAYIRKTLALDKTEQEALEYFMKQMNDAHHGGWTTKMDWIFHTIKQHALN
T2 sequence (P27986 whole entry, chain 2 of 2, the tested form may be a part): as the sequence (P27986 whole entry, stated change not applied, chain 2 of 2, the tested form may be a part) above
T1 sequence (P42336 whole entry H1047R, chain 1 of 2, the tested form may be a part): as the sequence (P42336 whole entry, chain 1 of 2, the tested form may be a part) above, with H1047R counted along it
T1 sequence (P27986 whole entry, chain 2 of 2, the tested form may be a part): as the sequence (P27986 whole entry, stated change not applied, chain 2 of 2, the tested form may be a part) above

B1: PDGFR bis-phosphorylated pY peptide (PDGFR residues 735–767, pY740, pY751) (peptide)
peptide: H-ESDGG[pY]MDMSKDESID[pY]VPMLDMKGDIKYADIE-OH
SMILES: CC[C@H](C)[C@H](NC(=O)[C@H](CC(=O)O)NC(=O)[C@H](C)NC(=O)[C@H](Cc1ccc(O)cc1)NC(=O)[C@H](CCCCN)NC(=O)[C@@H](NC(=O)[C@H](CC(=O)O)NC(=O)CNC(=O)[C@H](CCCCN)NC(=O)[C@H](CCSC)NC(=O)[C@H](CC(=O)O)NC(=O)[C@H](CC(C)C)NC(=O)[C@H](CCSC)NC(=O)[C@@H]1CCCN1C(=O)[C@@H](NC(=O)[C@H](Cc1ccc(OP(=O)(O)O)cc1)NC(=O)[C@H](CC(=O)O)NC(=O)[C@@H](NC(=O)[C@H](CO)NC(=O)[C@H](CCC(=O)O)NC(=O)[C@H](CC(=O)O)NC(=O)[C@H](CCCCN)NC(=O)[C@H](CO)NC(=O)[C@H](CCSC)NC(=O)[C@H](CC(=O)O)NC(=O)[C@H](CCSC)NC(=O)[C@H](Cc1ccc(OP(=O)(O)O)cc1)NC(=O)CNC(=O)CNC(=O)[C@H](CC(=O)O)NC(=O)[C@H](CO)NC(=O)[C@@H](N)CCC(=O)O)[C@@H](C)CC)C(C)C)[C@@H](C)CC)C(=O)N[C@@H](CCC(=O)O)C(=O)O
notes: PDGFR residues 735-767; human has V where this peptide has I at two places; also called phosphopeptide; source: synthetic peptide; bought: New England Peptide
binds: all assays above
